How the values were obtained:
Rat1A cells = test: Karyotype analysis (chromosome counts, aneuploidy) of Rat1A cells; type: cell-based, rat; settings: Rat1A cells, 100 cells counted
Method: Distribution of chromosome counts of cells arrested in mitosis and analyzed for karyotypes using DAPI. Chromosomes were counted in 100 metaphase cells for each condition to determine the ploidy and the diversity of chromosome counts within the cell population. FGFR3-TACC3 fusion induces aneuploidy.
The upper panel is a karyotype analysis of Rat1A cells transduced with control or FGFR3-TACC3 lentivirus and treated with vehicle (DMSO) or PD173470 (100 nM) for five days.
Karyotype analysis. Cultured cells were colcemid (20 ng/ml) treated for 90 minutes before harvesting for karyotopic analysis as detailed in Extended Experimental procedures. At least one hundred cells in metaphase were examined for chromosome count. PMSCS was scored in cells where a majority of the sister chromosomes were no longer associated. Two-tailed unpaired t-tests with Welch's correction were performed for comparison of means analysis.
Karyotypic Analysis. The colcemid treated cells were trypsinized, centrifuged for 7 minutes at 200×g, and the cell pellet re-suspended in warmed hypotonic solution and incubated at 37° C. for 13 minutes. The swollen cells were then centrifuged and the pellet re-suspended in 8 ml of Carnoy's fixative (3:1 methanol:glacial acetic acid). The cell suspension was centrifuged and washed twice in Carnoy's fixative. After the last centrifugation, the cells were resuspended in 0.5 to 1 ml of freshly prepared fixative to produce an opalescent cell suspension. Drops of the final cell suspension were placed on clean slides and air-dried. Slides were stained with DAPI and metaphases were analyzed under a fluorescent microscope.

Rat1 [1] = test: Soft agar colony assay, Rat1 cells; type: cell-based, rat; settings: Rat1 cells transduced with the construct
Excerpt: FGFR1-TACC1 and FGFR3-TACC3 induce anchorage-independent growth in Rat1A fibroblasts. The number of soft agar colonies was scored from triplicate samples 14 days after plating. Representative microphotographs are shown.

Balb 3T3 = test: Soft agar colony assay, Balb 3T3 cells; type: cell-based; settings: Balb 3T3 cells transduced with the construct
[2] = tested on: Ink4A;Arf-/- astrocytes in immunodeficient mice; test: Subcutaneous tumor xenograft formation by lentivirus-transduced Ink4A;Arf-/- astrocytes; type: in vivo, mouse; settings: Ink4Arf-/- astrocytes expressing the construct
Excerpt: FIG. 3B are photomicrographs showing of immunofluoresence staining of tumors from mice injected with Ink4A; Arf−/− astrocytes expressing FGFR3-TACC3 showing positivity for glioma-specific (Nestin, Oig2 and GFAP) and proliferation markers (Ki67 and pHH3). Sub-cutaneous tumors were generated by Ink4A; Arf−/− astrocytes expressing FGFR-TACC fusions.
Subcutaneous xenografts and drug treatment. […] For experiments with FGFR inhibitors, mice carrying ˜200-300 mm 3 subcutaneous tumors derived from Ink4A; Arf−/− astrocytes were randomized to receive 50 mg/kg PD173074 in 0.05 M lactate buffer (pH 5) or an equal volume of lactate buffer by oral gavage. Treatment was administered for three cycles consisting of four consecutive days followed by two days of rest. […] Data are expressed as mean±SE.

Rat1 [3] = test: Subcutaneous tumor xenografts formed by transduced Rat1 cells; type: in vivo, rat; settings: Rat1 cells expressing the construct

B1: FGFR3: wild type FGFR3 expressed by lentivirus (protein, listed as Homo sapiens)
chain: MGAPACALALCVAVAIVAGASSESLGTEQRVVGRAAEVPGPEPGQQEQLVFGSGDAVELSCPPPGGGPMGPTVWVKDGTGLVPSERVLVGPQRLQVLNASHEDSGAYSCRQRLTQRVLCHFSVRVTDAPSSGDDEDGEDEAEDTGVDTGAPYWTRPERMDKKLLAVPAANTVRFRCPAAGNPTPSISWLKNGREFRGEHRIGGIKLRHQQWSLVMESVVPSDRGNYTCVVENKFGSIRQTYTLDVLERSPHRPILQAGLPANQTAVLGSDVEFHCKVYSDAQPHIQWLKHVEVNGSKVGPDGTPYVTVLKTAGANTTDKELEVLSLHNVTFEDAGEYTCLAGNSIGFSHHSAWLVVLPAEEELVEADEAGSVYAGILSYGVGFFLFILVVAAVTLCRLRSPPKKGLGSPTVHKISRFPLKRQVSLESNASMSSNTPLVRIARLSSGEGPTLANVSELELPADPKWELSRARLTLGKPLGEGCFGQVVMAEAIGIDKDRAAKPVTVAVKMLKDDATDKDLSDLVSEMEMMKMIGKHKNIINLLGACTQGGPLYVLVEYAAKGNLREFLRARRPPGLDYSFDTCKPPEEQLTFKDLVSCAYQVARGMEYLASQKCIHRDLAARNVLVTEDNVMKIADFGLARDVHNLDYYKKTTNGRLPVKWMAPEALFDRVYTHQSDVWSFGVLLWEIFTLGGSPYPGIPVEELFKLLKEGHRMDKPANCTHDLYMIMRECWHAAPSQRPTFKQLVEDLDRVLTVTSTDEYLDLSAPFEQYSPGGQDTPSSSSSGDDSVFAHDLLPPAPPSSGGSRT
Average variation from mean number (Rat1A cells): 1.3
Mean number (chromosomal number) (Rat1A cells): 42.1
Percent aneuploidy (Rat1A cells): 33%
Range (chromosomal number) (Rat1A cells): 35-44
soft agar colonies (Rat1 [1]): 0
soft agar colonies (Balb 3T3): 0
Subcutaneous tumor xenografts (tumors formed/injections) [2]: 0/5
Subcutaneous tumor xenografts (tumors formed/injections) (Rat1 [3]): 0/5
